Read-outs that look alike come from different tables or passages of the source. Where no end group is shown, it is not given here.
Assays:
[1] = test system: T1, LL37ARRA (CLLGDFARRAKEKIG)
T1 sequence: CLLGDFARRAKEKIG

[2] = target: T2, OmpT (omptin outer membrane protease of Escherichia coli), recombinant, reconstituted in detergent micelles (Escherichia coli, UniProt P09169 21-317); assay: cell-based or functional assay
T2 sequence: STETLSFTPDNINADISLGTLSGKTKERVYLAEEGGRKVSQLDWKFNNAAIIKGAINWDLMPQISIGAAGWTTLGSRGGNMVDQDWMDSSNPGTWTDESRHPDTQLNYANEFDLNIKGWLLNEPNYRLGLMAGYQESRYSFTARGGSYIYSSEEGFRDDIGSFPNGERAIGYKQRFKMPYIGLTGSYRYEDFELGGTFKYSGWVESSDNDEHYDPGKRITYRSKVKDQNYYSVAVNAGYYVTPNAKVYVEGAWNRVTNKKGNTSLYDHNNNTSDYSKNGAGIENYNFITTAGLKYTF

[3] = target: T3, LL37FRRY (CLLGDFFRRYKEKIG)
T3 chain: CLLGDFFRRYKEKIG

[4] = target: T4, LL37FRRV (CLLGDFFRRVKEKIG)
T4 chain: CLLGDFFRRVKEKIG

[5] = target: T5, LL37FRRA (CLLGDFFRRAKEKIG)
T5 chain: CLLGDFFRRAKEKIG

[6] = target: T6, LL37YRRA (CLLGDFYRRAKEKIG)
T6 chain: CLLGDFYRRAKEKIG

[7] = target: T7, LL37ARRA (CLLGDFARRAKEKIG)
T7 chain: CLLGDFARRAKEKIG

With “PgtE (omptin protease, present on pathogenic Salmonella typhi)” the “proteolytic activity, measured as the change in PT6 fluorescence with time” value [1] was “OmpT exhibits a higher preference for LL37ARRA (SEQ ID NO: 11) than does PgtE”.

B1: LL37FRRA (CLLGDFFRRAKEKIG) (peptide)
peptide: CLLGDFFRRAKEKIG
For B1, the “colour of PT6 under UV-A light after incubation with OmpT” value (“colour of PT6 under UV-A light” below) [2] was at most 10 min and the “incubation time with OmpT for an almost complete reduction in PT6 fluorescence” value [2] was under 20 min.

B2: LL37YRRA (CLLGDFYRRAKEKIG) (peptide)
peptide: CLLGDFYRRAKEKIG
With B2 the “colour of PT6 under UV-A light” value [2] was at most 10 min and the “incubation time with OmpT for an almost complete reduction in PT6 fluorescence” value [2] was under 20 min.

B3: LL37FRRY (CLLGDFFRRYKEKIG) (peptide)
peptide: CLLGDFFRRYKEKIG
With B3 the “colour of PT6 under UV-A light” value [2] was at most 10 min and the “incubation time with OmpT for an almost complete reduction in PT6 fluorescence” value [2] was under 20 min.

B4: OmpT (omptin outer membrane protease of Escherichia coli), recombinant, reconstituted in detergent micelles (protein)
chain: T2 sequence
In the case of B4, the “rate of cleavage by OmpT” value [3] is reported as “cleaved by the protease (OmpT) much more rapidly than the LL37FRRY peptide substrate used in Examples 1-5”, the “SAMDI-MS screen of a peptide array for cleavage by omptin proteases” value [4] is reported as 400 times better then original peptide and the “cleavage, confirmed by MALDI-TOF” value [4] is reported as “it was cleaved at the dibasic site (-R8-R9-) to yield two short fragments of eight and seven residues”. For the same molecule, the “rate of cleavage by OmpT” value [5] was “cleaved by the protease (OmpT) much more rapidly than the LL37FRRY peptide substrate used in Examples 1-5”, the “time to full cleavage by OmpT” value [5] was “fully cleaved by OmpT in less than 20 min” and the “rate of cleavage by OmpT” value [6] was “cleaved by the protease (OmpT) much more rapidly than the LL37FRRY peptide substrate used in Examples 1-5”. For the same molecule, the “time to full cleavage by OmpT” value [6] was “fully cleaved by OmpT in less than 20 min” and the “proteolytic activity, measured as the change in PT6 fluorescence with time” value [7] was “OmpT exhibits a higher preference for LL37ARRA (SEQ ID NO: 11) than does PgtE”.

B5: LL37FRRV (CLLGDFFRRVKEKIG) (peptide)
peptide: CLLGDFFRRVKEKIG-NH2
B5 was tested, and the “incubation time with OmpT for an almost complete reduction in PT6 fluorescence” value [2] was over 40 min.
